Biological target: de2-7EGFR (UniProt P00533)
Experiment: non-reducing SDS-PAGE and Western blot of disulfide-bonded dimers; cells washed and lysed in RIPA buffer with 10 mM iodoacetamide; non-reducing Laemmli buffer; blot probed with mAb806

dimer as proportion of the total species: 25%
Substance: de2-7EGFR (from UniProt P00533 25-1210) (receptor)

Reference: paper PMC3757403
